{"source": "paper PMC10570509", "origin": "cited, not measured here", "biological_target": "OSMRβ (Homo sapiens) (UniProt Q99650)", "sequence (Q99650 28-740)": "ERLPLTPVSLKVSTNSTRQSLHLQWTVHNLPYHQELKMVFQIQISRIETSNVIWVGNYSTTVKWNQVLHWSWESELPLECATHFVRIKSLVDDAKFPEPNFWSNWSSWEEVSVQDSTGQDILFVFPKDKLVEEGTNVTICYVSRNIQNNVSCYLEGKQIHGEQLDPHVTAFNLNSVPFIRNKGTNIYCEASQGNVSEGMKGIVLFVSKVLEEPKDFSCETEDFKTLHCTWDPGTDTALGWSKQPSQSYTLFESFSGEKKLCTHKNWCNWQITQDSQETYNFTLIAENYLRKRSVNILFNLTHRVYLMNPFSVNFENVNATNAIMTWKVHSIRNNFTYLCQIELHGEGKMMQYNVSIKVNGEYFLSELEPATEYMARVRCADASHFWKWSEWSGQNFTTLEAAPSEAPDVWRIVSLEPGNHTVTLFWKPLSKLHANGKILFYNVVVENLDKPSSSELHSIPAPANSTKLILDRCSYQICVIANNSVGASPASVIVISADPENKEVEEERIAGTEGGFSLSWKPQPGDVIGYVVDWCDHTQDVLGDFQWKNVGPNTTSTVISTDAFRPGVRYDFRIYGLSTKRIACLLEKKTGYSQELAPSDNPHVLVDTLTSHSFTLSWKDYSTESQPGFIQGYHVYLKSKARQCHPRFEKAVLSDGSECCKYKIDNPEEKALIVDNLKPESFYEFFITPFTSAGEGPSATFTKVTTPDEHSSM"}
{"substance": "Oncostatin M (from UniProt P13725)", "values": [{"measurement": "Kd", "result": 0.15, "unit": "nM"}]}
